Experimental findings from publication PMC5826585 are described below.

This data set addresses IGF2BP2-dRRM (Homo sapiens, UniProt Q9Y6M1 158-599). Briefly: pull-down.

IGF2BP2-dRRM, sequence (Q9Y6M1 158-599): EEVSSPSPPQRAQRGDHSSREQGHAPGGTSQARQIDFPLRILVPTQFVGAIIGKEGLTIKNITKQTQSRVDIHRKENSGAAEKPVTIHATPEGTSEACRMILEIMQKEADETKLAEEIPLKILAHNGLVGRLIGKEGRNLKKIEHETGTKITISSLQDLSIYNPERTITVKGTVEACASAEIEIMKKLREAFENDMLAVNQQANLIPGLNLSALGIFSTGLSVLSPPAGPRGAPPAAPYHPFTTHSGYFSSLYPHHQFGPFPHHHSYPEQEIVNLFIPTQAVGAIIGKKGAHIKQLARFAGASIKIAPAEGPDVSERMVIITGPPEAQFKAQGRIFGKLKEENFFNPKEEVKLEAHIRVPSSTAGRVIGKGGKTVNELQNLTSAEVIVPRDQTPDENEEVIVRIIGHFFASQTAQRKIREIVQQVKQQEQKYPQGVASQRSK

For the molecule CGUCUCGGACUCGGACUGCU (ssRNA, m6A at positions 9 and 15) [ss-m6A (biotin)], the binding result was “binds”.
